The values below come from PMC4027165, “SAXS analysis of the tRNA-modifying enzyme complex MnmE/MnmG reveals a novel interaction mode and GTP-induced oligomerization” (Nucleic Acids Research, 2014).

Data set [1] concerns the target T1, MnmE (Y169A, D175A and F176A) with additional S153A (Escherichia coli, UniProt P25522 1-454, S153A | Y169A | D175A | F176A).
T1 sequence: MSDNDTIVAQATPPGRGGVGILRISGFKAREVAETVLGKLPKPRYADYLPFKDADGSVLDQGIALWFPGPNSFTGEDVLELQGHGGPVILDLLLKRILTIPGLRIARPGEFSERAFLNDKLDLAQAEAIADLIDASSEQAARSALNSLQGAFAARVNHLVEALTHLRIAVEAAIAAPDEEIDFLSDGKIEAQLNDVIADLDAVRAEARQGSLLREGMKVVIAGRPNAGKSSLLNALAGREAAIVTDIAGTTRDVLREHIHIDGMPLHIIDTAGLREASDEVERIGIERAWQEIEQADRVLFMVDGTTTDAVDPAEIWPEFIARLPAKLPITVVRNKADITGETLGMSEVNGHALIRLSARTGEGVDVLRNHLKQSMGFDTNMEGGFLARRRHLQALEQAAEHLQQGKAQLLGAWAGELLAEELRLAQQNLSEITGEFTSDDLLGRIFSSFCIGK
Put plainly: ITC; MnmE mutant in syringe, MnmG in cell.

Data set [2] concerns the target T2, MnmE (Y169A, D175A and F176A) (Escherichia coli, UniProt P25522 1-454, Y169A | D175A | F176A).
T2 sequence: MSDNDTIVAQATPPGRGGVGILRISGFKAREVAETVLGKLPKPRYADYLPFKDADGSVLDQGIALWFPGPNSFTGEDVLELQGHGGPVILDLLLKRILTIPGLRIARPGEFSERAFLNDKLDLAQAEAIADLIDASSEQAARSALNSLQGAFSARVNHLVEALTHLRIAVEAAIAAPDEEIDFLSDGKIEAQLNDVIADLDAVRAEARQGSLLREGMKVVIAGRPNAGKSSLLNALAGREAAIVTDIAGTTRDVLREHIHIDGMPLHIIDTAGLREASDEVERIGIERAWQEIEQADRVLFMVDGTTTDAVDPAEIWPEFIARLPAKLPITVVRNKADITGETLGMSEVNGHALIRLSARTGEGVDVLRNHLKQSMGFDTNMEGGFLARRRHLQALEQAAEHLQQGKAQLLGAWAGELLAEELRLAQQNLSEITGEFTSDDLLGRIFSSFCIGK
Briefly: ITC; MnmE mutant in syringe, MnmG in cell. Background: ITC needs no label: the signal is the heat of the interaction.

Data set [3] addresses T3, MnmE (T434A and D440A) (Escherichia coli, UniProt P25522 1-454, T434A | D440A).
T3 sequence: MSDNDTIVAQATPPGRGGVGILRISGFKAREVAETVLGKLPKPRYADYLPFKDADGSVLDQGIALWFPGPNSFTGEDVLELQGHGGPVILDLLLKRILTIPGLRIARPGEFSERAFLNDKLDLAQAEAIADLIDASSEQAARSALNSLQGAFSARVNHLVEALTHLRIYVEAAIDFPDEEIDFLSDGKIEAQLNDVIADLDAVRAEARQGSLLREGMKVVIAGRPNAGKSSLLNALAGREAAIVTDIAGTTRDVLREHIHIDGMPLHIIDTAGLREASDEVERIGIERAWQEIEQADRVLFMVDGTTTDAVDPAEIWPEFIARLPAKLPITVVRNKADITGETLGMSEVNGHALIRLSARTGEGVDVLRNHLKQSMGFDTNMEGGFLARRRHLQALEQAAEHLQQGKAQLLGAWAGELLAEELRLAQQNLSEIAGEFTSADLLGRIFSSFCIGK
Briefly: ITC; MnmE mutant in syringe, MnmG in cell.

For data set [4], the target named is T1, MnmE (Y169A, D175A and F176A) with …. Put plainly: ITC; MnmG in syringe, MnmE mutant in cell.
The target in data set [5] is T2, MnmE (Y169A, D175A and F176A). Put plainly: ITC; MnmG in syringe, MnmE mutant in cell.
Data set [6] has as its target T3, MnmE (T434A and D440A). Briefly: ITC; MnmG in syringe, MnmE mutant in cell.
Data set [7] deals with the molecule itself. Put plainly: SEC-MALS; E. coli MnmG alone, at all concentrations used (Supplementary Figure S2(D)).
For data set [8], the target named is T4, MnmE from Escherichia coli, wild type (Escherichia coli, UniProt P25522 1-454).
T4 construct: tRNA modification GTPase MnmE (formerly TrmE), Escherichia coli; open reading frame cloned in a pET20 vector; Homodimer of about 50-kDa subunits; Used nucleotide-free, with GDP-AlFx or with GppNHp depending on the experiment; also called TrmE; MnmE wt
T4 sequence (looked up): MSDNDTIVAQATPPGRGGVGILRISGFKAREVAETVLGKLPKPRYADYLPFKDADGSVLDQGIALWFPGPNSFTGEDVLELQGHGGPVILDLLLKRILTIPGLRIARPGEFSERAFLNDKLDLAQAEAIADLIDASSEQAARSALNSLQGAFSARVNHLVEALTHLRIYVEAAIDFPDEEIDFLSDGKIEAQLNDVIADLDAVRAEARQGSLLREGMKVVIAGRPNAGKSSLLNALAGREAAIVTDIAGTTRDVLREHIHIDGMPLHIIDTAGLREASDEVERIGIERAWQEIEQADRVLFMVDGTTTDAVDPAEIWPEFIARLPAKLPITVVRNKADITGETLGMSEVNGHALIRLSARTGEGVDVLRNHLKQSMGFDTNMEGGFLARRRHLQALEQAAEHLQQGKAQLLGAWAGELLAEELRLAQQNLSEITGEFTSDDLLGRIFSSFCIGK
Put plainly: ITC; 278 K; 20 mM Hepes pH 7.5, 150 mM NaCl, 5 mM MgCl2, 2 mM BME, 1 mM FAD; 15 uM in the cell, 300 uM in the syringe; titrated in both directions; one site model; apparent. The settings on record: both partners purified.

B1: MnmG from Escherichia coli, wild type (enzyme, UniProt P0A6U3 1-629, looked up)
chain: MFYPDPFDVIIIGGGHAGTEAAMAAARMGQQTLLLTHNIDTLGQMSCNPAIGGIGKGHLVKEVDALGGLMAKAIDQAGIQFRILNASKGPAVRATRAQADRVLYRQAVRTALENQPNLMIFQQAVEDLIVENDRVVGAVTQMGLKFRAKAVVLTVGTFLDGKIHIGLDNYSGGRAGDPPSIPLSRRLRELPLRVGRLKTGTPPRIDARTIDFSVLAQQHGDNPMPVFSFMGNASQHPQQVPCYITHTNEKTHDVIRSNLDRSPMYAGVIEGVGPRYCPSIEDKVMRFADRNQHQIFLEPEGLTSNEIYPNGISTSLPFDVQMQIVRSMQGMENAKIVRPGYAIEYDFFDPRDLKPTLESKFIQGLFFAGQINGTTGYEEAAAQGLLAGLNAARLSADKEGWAPARSQAYLGVLVDDLCTLGTKEPYRMFTSRAEYRLMLREDNADLRLTEIGRELGLVDDERWARFNEKLENIERERQRLKSTWVTPSAEAAAEVNAHLTAPLSREASGEDLLRRPEMTYEKLTTLTPFAPALTDEQAAEQVEIQVKYEGYIARQQDEIEKQLRNENTLLPATLDYRQVSGLSNEVIAKLNDHKPASIGQASRISGVTPAAISILLVWLKKQGMLRRSA
notes: tRNA uridine 5-carboxymethylaminomethyl modification enzyme MnmG (formerly GidA), Escherichia coli; open reading frame cloned in a pET14b vector; Homodimer of 70-kDa subunits; also called GidA; MnmG wt
As to B1, the dissociation constant (Kd) in data set [1] was 12.9 µM; in data set [2] it was 12 µM; in data set [3] it was 11.2 µM; in data set [4], 29.9 µM; in data set [5] it was 11.4 µM; in data set [6], 9.4 µM. The “stoichiometry N” value in data set [7] was 2; in data set [8], 1.

In general, Kd refers to the free concentration of one partner at which half of the binding sites on the other are occupied at equilibrium, for simple one-to-one binding. A higher Kd goes with lower affinity. Broadly, the stoichiometry N is a count of units in the complex or per binding partner.
